Laboratory results taken from patent US20210138083A1 (INATHERYS, published 2021).

Experiments:
[1] = target: T1, human transferrin receptor (Transferrin receptor protein 1 isoform 1, Homo sapiens, NCBI NP_003225.2) (Homo sapiens, UniProt P02786 1-760); experiment: cell-based or functional assay
[2] = target: T1, human transferrin receptor (Transferrin …); experiment: flow cytometry, biotinylated antibody on THP-1 and MEC-1 cells, streptavidin Alexa F488
Procedure: Serial dilutions (5 to 0.05 ug/mL) of both biotinylated antibodies (antibody A24 and antibody of ADC INA01-SDV1) were performed and incubated on THP-1 and MEC-1 cell lines. The binding of the diluted antibodies was detected by Flow cytometry using streptavidin Alexa F488 (available at ThermoFisher scientific).

T1 sequence (P02786 whole entry, canonical isoform): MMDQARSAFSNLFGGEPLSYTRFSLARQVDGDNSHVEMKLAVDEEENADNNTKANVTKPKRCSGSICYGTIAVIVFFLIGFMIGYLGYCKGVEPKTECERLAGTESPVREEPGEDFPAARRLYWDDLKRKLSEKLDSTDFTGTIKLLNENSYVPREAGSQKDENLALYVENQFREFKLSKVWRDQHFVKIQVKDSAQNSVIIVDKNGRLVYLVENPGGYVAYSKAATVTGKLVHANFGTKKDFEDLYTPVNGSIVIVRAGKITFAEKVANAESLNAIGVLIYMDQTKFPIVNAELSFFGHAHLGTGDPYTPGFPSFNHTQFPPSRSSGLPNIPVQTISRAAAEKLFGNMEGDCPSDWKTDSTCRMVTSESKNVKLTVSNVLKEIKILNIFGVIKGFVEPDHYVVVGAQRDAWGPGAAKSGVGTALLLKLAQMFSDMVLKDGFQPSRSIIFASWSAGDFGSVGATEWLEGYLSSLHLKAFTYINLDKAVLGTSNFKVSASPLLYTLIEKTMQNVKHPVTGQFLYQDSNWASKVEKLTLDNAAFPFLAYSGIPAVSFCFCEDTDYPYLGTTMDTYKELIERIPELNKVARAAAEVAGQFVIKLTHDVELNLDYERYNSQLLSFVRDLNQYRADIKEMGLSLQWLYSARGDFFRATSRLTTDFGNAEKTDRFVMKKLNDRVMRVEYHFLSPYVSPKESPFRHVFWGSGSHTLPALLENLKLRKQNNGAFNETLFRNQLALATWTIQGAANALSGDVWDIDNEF

B1: INA01-SDV1 (antibody, human IgG4 S228P, kappa, V domains shown)
VH: QVQLVQSGPELKKPGASVKVSCKASGYTFTNQGMNWVKQAPGKGLKWMGWINTYTGEPINADDFKGRFVISLDTSASTAYLQISSLKAEDTAVYFCVREGWDSMDYWGQGTSVTVSS
VL: QIVLTQSPATLSVSPGERATLSCSASSSVNYMHWFQQKPGQSPRLLIYSTSNRATGIPARFSGSGSGTSYTLTISSLEPEDFAVYYCQQRSSYPLTFGQGTKLEIKR
modifications: linker APN (formula IV)-valine-citrulline-para-aminobenzyl ester-MMAE attached through the cysteine residues (thiols); biotinylated in Example 1
- IC50 of cell proliferation of HL-60 acute myeloid leukemia cell line [1]: 0.08 µg/mL

B2: A24 (antibody, V domains shown)
VH: QIQLVQSGPELKKPGETVKISCKASGYTFTNQGMNWVKQAPGKGLKWMGWINTYTGEPINADDFKGRFAISLETSASTAYLQINNLKNEDMATYFCVREGWDSMDYWGQGTSVTVSS
VL: QIVLTQSPAIMSASPGEKVTITCSASSSVNYMHWFQQKPGTSPKLWIYSTSNLASGVPARFSGSGSGTSYSLTISRMEAEDAATYYCQQRSSYPLTFGAGTKLELKR
modifications: biotinylated in Example 1
notes: Mouse monoclonal IgG (IgG2kappa) as disclosed in WO 2005/111082; also called antibody A24; murine A24 antibody
- binding result [2]: binds
